Molecular target: Gag of the HIV-1 YP- mutant (HIV-1 (pNL4-3))

In the case of “Flag-DUb-TSG101 (from UniProt P10220 15-260)”, the release of HIV-1 YP- virus from 293T cells co-expressing Flag-DUb-TSG101 (Figure 2A, lane 3); inactive DUb*-TSG101 and DUb-TSG101 M95A had no effect is reported as greater than 95%.
